In paper PMC12278311, “PNUTS:PP1 recruitment to Tox4 regulates chromosomal dispersal in Drosophila germline development” (Cell reports, 2025):

Legend:
Details in all cases: both partners purified
[1] = molecular target: T1, PNUTS N-terminal domain (TND), rat, residues 5-160, C48S (rat, C48S); experiment: ITC; Tox4 titrated into PNUTS; Affinity-ITC, 25 °C; 20 mM Tris pH 8.5, 150 mM NaCl, 0.1 mM ZnSO4, 0.5 mM TCEP; one-site model assuming 1:1 stoichiometry; 3 replicates
T1 construct: PP1 nuclear targeting subunit (PNUTS, PPP1R10), rat, residues 5-160; Cloned in pRP1b; His6 tag cleaved with TEV protease; also called PNUTS C48S; PNUTS5-160 C48S; source: E. coli BL21 (DE3), purified (HisTrap, TEV cleavage, Ni-NTA flow-through, SEC)
T1 chain: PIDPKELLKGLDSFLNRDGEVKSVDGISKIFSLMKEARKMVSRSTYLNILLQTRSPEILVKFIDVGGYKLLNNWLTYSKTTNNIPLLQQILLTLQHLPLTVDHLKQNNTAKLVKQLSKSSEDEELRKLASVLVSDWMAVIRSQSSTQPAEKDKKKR

[2] = molecular target: T2, PNUTS TND (rat PNUTS 5-160, C48S) (rat, UniProt O55000 5-160, C48S); experiment: NMR titration; 2D [1H,15N] HSQC of 15N-labelled PNUTS with zinc-loaded Tox4 at a 1:2 molar ratio; 20 mM MES pH 6, 150 mM NaCl, 5 mM DTT; 298 K
T2 construct: PNUTS (PPP1R10), rat, N-terminal TFIIS domain, residues 5-160; cloned in pRP1b; 15N-labelled for NMR; also called PNUTS N-terminal domain; PNUTS NTD; source: E. coli BL21 (DE3), purified (HisTrap, TEV cleavage, Ni-NTA flow-through, SEC)
T2 sequence (looked up): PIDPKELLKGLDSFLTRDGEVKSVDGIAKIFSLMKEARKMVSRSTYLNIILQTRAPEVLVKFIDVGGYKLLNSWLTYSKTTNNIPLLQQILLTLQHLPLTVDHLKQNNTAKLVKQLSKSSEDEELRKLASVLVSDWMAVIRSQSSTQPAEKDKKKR

[3] = molecular target: T2, PNUTS TND (rat PNUTS 5-160, C48S); experiment: ITC; Tox4 titrated into PNUTS at 25°C; 20 mM Tris pH 8.5, 150 mM NaCl, 0.1 mM ZnSO4, 0.5 mM TCEP; one-site model assuming 1:1

B1: Tox4 C-terminal domain, human, residues 571-621, C601S (domain or fragment)
chain: RCVRSGCENPPIVSKDWDNEYCSNECVVKHSRDVFLAWVASRNSNTVVFVK
notes: TOX4, human, residues 571-621; Cloned in pTHMT (His6-MBP-TEV site); also called TOX4 C601S; Tox4571-621 C601S; source: E. coli BL21 (DE3) with 0.1 mM ZnSO4, purified (HisTrap, TEV cleavage, Ni-NTA and amylose resin, SEC); not shown: His6, N-terminal, cleaved; MBP, N-terminal, cleaved
**Q.** How did the Kd [1] turn out when B1 was run?
**A.** 0.3 ± 0.2 nM

B2: Tox4 CTD (human Tox4 571-621) (domain or fragment, UniProt O94842 571-621, looked up)
chain: RCVRSGCENPPIVSKDWDNEYCSNECVVKHCRDVFLAWVASRNSNTVVFVK
notes: TOX4, human, C-terminal domain, residues 571-621; also called Tox4 C-terminal domain; zinc-loaded Tox4; source: E. coli BL21 (DE3) with 0.1 mM ZnSO4, purified (HisTrap, TEV cleavage, amylose resin, SEC); not shown: His6, N-terminal, cleaved; MBP, N-terminal, cleaved
**Q.** Does B2 bind [2]?
**A.** binds

B3: Tox4 CTD (human Tox4 571-621, C601S) (domain or fragment, UniProt O94842 571-621, looked up)
chain: RCVRSGCENPPIVSKDWDNEYCSNECVVKHSRDVFLAWVASRNSNTVVFVK
notes: TOX4, human, C-terminal domain, residues 571-621; also called Tox4_(C601S); source: E. coli BL21 (DE3) with 0.1 mM ZnSO4, purified (HisTrap, TEV cleavage, amylose resin, SEC); not shown: His6, N-terminal, cleaved; MBP, N-terminal, cleaved
**Q.** How did the Kd [3] turn out when B3 was run?
**A.** 0.3 nM
